Assay results from US20060270591A1, “Androgen receptor coregulators” (priority 2002, published 2006).

Key:
AR = AR transactivation reporter gene assay (CAT/Luc) in prostate cancer cell lines (Example 2); type: cell-based, human
Method: 394. The human prostate cancer cell lines, LNCaP, PC-3, and DU145, were maintained in Dulbecco's minimum essential medium (DMEM) containing 5% fetal calf serum (FCS). Transfections using the calcium phosphate precipitation method and chloramphenicol acetyltransferase (CAT) and luciferase (Luc) assays were performed as previously described (Miyamoto et al. (1998) Proc. Natl. Acad. Sci. U.S.A. 95, 7379-7384; Yeh et al. (1999) Endocrine 11, 195-202; Miyamoto et al. (1998) Proc. Natl. Acad. Sci. U.S.A. 95, 11083-11088). Briefly, 1-4×10^5 cells were plated on 35-mm or 60-mm dishes 24 h before adding the precipitation mix containing a CAT or Luc reporter gene and a β-galactosidase expression plasmid (pCMV-β-gal) as an internal control for normalization of transfection efficiency. The medium was changed to phenol-red-free DMEM with 5% charcoal-stripped FCS 1 h before transfection. In each experiment, the total amount of transfected DNA per dish was maintained as a constant by addition of empty expression vector (pSG5 or pVP16, as appropriate). […] The cells were then harvested and whole cell extracts were used for CAT or Luc assay. The CAT activity was quantitated with a PhosphorImager (Molecular Dynamics). The Luc assay was determined using a Dual-Luciferase Reporter Assay System (Promega) and luminometer.

PSA = assay: Western blot of endogenous PSA in stably transfected LNCaP cells; type: cell-based, human; details: stable LNCaP cells; +doxy; 1 nM DHT; vector alone without doxy = 100%
From the text: 14. […] (A) The effects of C′-ARA54 and mt-ARA54 on cell proliferation. […] Total cell number was counted by hemocytometer. Values represent the mean±SD of at least three determinations. (B) The effects of C′-ARA54 and mt-ARA54 on AR transcription activity. LNCaP cells stably transfected with pBIG2i (vector alone), pBIG2i-C′-ARA54, pBIG2i-mt-ARA54, or pBIG2i-fl-ARA54 were transiently transfected with MMTV-Luc. […] Values represent the mean±SD of at least three determinations. (C) The effects of C′-ARA54 and mt-ARA54 on PSA expression. […] The 33-kDa of protein was detected as indicated and quantitated by Collage Image Analysis software (Fotodyne). The normalized expression level in the first lane (vector alone without doxy treatment) was set as 100%. Values represent the mean±SD of three separate experiments.
395. […]

Sequence of AR (P10275 whole entry): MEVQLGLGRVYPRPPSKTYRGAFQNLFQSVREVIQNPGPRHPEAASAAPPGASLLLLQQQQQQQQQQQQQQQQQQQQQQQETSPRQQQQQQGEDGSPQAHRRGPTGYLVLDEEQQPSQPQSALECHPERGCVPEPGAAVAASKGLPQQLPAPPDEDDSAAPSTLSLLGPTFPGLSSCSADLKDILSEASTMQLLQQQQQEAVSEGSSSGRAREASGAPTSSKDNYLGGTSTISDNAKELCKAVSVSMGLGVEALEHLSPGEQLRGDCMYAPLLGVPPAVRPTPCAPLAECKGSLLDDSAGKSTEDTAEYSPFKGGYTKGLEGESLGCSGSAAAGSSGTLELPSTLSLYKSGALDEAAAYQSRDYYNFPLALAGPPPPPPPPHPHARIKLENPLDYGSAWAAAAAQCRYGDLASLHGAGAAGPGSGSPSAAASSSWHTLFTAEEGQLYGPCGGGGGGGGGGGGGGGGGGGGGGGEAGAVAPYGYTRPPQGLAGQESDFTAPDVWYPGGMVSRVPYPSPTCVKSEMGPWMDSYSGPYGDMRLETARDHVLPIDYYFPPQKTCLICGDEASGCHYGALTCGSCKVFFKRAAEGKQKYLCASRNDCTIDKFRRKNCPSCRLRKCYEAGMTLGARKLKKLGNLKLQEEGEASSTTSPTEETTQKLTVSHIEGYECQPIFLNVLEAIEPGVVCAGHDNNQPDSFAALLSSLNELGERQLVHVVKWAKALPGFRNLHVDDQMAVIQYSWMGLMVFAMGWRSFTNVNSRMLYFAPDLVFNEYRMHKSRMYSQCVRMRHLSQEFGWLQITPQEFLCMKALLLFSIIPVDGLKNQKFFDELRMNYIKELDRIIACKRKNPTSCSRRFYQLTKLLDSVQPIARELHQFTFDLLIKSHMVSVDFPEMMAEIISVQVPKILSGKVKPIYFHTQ

B1: C′-ARA54: C-terminal region (amino acids 361-474) of ARA54 (protein)
chain: RNEYLQADEANKRLLDQRYGKRVIQKALEEMESKEWLEKNSKSCPCCGTPIEKLDGCNKMTCTGCMQYFCWICMGSLSRANPYKHFNDPGSPCFNRLFYAVDVDDDIWEDEVED
modifications: Homo sapien
notes: C-terminal region (amino acids 361-474) of ARA54
effect on ARA55-, ARA70-, Rb-, or SRC-1-enhanced AR transactivation (AR; DU145 cells, 1 nM DHT): only marginal or slight suppressive effects
effect on DHT- or HF-mediated AR transcription activity (AR; LNCaP, PC-3, DU145 cells, 1 nM DHT or 1 μM HF): suppresses DHT- or HF-mediated AR transcription activity
endogenous PSA expression (PSA): 87%
